Consider 1 protein from paper PMC4968620 (Biochemistry, 2016).

This series concerns the molecule itself. Kind of series: SAXS.

B1: HsRXRαΔNTD (130-462) (domain or fragment)
chain: FTKHICAICGDRSSGKHYGVYSCEGCKGFFKRTVRKDLTYTCRDNKDCLIDKRQRNRCQYCRYQKCLAMGMKREAVQEERQRGKDRNENEVESTSSANEDMPVERILEAELAVEPKTETYVEANMGLNPSSPNDPVTNICQAADKQLFTLVEWAKRIPHFSELPLDDQVILLRAGWNELLIASFSHRSIAVKDGILLATGLHVHRNSAHSAGVGAIFDRVLTELVSKMRDMQMDKTELGCLRAIVLFNPDSKGLSNPAEVEALREKVYASLEAYCKHKYPEQPGRFAKLLLRLPALRSIGLKCLEHLFFFKLIGDTPIDTFLMEMLEAPHQMT
In general, stoichiometry N refers to a count of units in the complex or per binding partner. B1: the “stoichiometry N” value is 2.
